This is an account of results in patent CN117999282A (GAMMADELTA THERAPEUTICS LTD, dated 2024).

One test addresses T1, recombinant human OX40 (human, UniProt P43489 29-216).
T1 construct: also called 重组OX40; 人OX40
T1 sequence (looked up): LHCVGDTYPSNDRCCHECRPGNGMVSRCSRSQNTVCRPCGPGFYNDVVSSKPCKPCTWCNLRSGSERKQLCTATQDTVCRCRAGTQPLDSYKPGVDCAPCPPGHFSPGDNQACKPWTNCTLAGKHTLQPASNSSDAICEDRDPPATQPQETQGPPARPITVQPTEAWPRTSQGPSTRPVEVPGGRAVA
Briefly: SPR, OX40 fixed on carboxymethyl dextran chip, bispecific 100nM, then Vδ1 heterodimer 100nM. (Surface plasmon resonance follows binding to a sensor surface in real time, without labels.)

The target of the next test is T2, recombinant human PD-1 (human, UniProt Q15116 25-167).
T2 construct: also called 重组PD-1; 人PD-1
As to the kind of experiment: SPR, PD-1 fixed on carboxymethyl dextran chip, bispecific 100nM, then Vδ1 heterodimer 100nM.

In test [1] the target is human Vδ1 γδ T cell receptor on cells (skin-, blood- or tumour-derived Vδ1 γδ T cells) (human). As to the kind of experiment: cell-based or functional assay.
human Vδ1 γδ T cell receptor on cells (skin-, blood- or tumour-derived Vδ1 γδ T cells) (human), sequence (A0A1B0GX56 22-115, stated change not applied): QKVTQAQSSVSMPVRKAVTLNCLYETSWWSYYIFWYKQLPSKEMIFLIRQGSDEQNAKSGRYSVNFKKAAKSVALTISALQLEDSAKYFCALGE

T2 sequence (Q15116 25-167 limits assumed): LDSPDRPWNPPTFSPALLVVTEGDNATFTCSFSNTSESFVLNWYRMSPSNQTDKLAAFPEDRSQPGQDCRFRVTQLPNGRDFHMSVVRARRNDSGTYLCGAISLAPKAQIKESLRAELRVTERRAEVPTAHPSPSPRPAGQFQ

B1: 抗Vδ1×OX40双特异性抗体 (ADT1-4-2×珀伽利珠单抗) (bispecific antibody, human IgG1, kappa)
chain 1: DIQMTQSPPALSASVGDRVTITCRASQDINDWLAWYQHKPGKAPKLLIYDASSLESGVPLRFSGSGSGTEFTLTISSLQPDDFATYYCQQKYSAPQVTFGQGTRLEIKRTVAAPSVFIFPPSDEQLKSGTASVVCLLNNFYPREAKVQWKVDNALQSGNSQESVTEQDSKDSTYSLSSTLTLSKADYEKHKVYACEVTHQGLSSPVTKSFNRGEC
chain 2: not shown
notes: also called 抗Vδ1×抗OX40
As for B1, the binding result with recombinant human OX40 is given as “binds”.

B2: 抗Vδ1×PD-1双特异性抗体 (ADT1-4-2×帕博利珠单抗) (bispecific antibody, human IgG1, kappa)
chain 1: EIVLTQSPATLSLSPGERATLSCRASKGVSTSGYSYLHWYQQKPGQAPRLLIYLASYLESGVPARFSGSGSGTDFTLTISSLEPEDFAVYYCQHSRDLPLTFGGGTKVEIKRTVAAPSVFIFPPSDEQLKSGTASVVCLLNNFYPREAKVQWKVDNALQSGNSQESVTEQDSKDSTYSLSSTLTLSKADYEKHKVYACEVTHQGLSSPVTKSFNRGEC
chain 2: not shown
notes: also called 抗Vδ1×抗PD-1
For B2, the binding result in the test with recombinant human PD-1 was “binds”.

B3: ADT1-4 (parent antibody) (antibody, IgG1, V domains shown)
VH: QVQLQQSGPGLVKPSQTLSLTCAISGDSVSSKSAAWNWIRQSPSRGLEWLGRTYYRSKWSTDYAASVKSRITINPDTSKNQLSLQLNSVTPEDTAVYYCARTWSGYVDVWGQGTLVTVSS
VL: DIQMTQSPPALSASVGDRVTITCRASQDINDWLAWYQHKPGKAPKLLIYDASSLESGVPSRFSGSGSGTEFTLTISSLQPDDFATYYCQQSYSTPQVTFGQGTRLEIK
On to B3, for which the “TCR下调 IC50 (soluble assay)” value in test [1] was 38.3 nM.
